Laboratory results published in patent US20110154541A1.

Biological target: horse-heart mitochondrial cytochrome c (horse) (UniProt P00004)
Experiment: cell-based or functional assay

Sequence of UniProt P00004 (P00004 2-105 limits assumed): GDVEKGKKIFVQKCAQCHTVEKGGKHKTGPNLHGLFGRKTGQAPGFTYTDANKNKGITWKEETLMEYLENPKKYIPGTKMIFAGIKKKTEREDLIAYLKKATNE

Substance: Photosystem II with variant D1 protein D1-K238E, in thylakoid membranes isolated from the Synechocystis sp. PCC 6803 Glu mutant strain (from UniProt P16033 1-344)
- rate of cc reduction (light-dependent, increase of the cc alpha peak at 550 nm), with DCMU (µmol/(mg chl·h)): 20
- rate of cc reduction (light-dependent, increase of the cc alpha peak at 550 nm), without DCMU (µmol/(mg chl·h)): 12
